Measured values reported in patent publication US20250320281A1.

Experiments:
Assay in all cases: cell-based or functional assay
[1] = molecular target: HIV-1 Env of pseudovirus MGRM-AG-008 (clade CRF_AG) (HIV-1)
[2] = molecular target: HIV-1 Env of isolate 93MW959 (clade C) (HIV-1 isolate 93MW959)
[3] = molecular target: HIV-1 envelope glycoprotein (Env) of isolate MGRM-A-007, clade A (HIV-1)
[4] = molecular target: HIV-1 Env of pseudovirus MGRM-F1-023 (HIV-1)
[5] = molecular target: HIV-1 Env of isolate MGRM-D-024 (clade D pseudovirus) (HIV-1)
[6] = molecular target: HIV-1 envelope glycoprotein (Env) of isolate 92UG031, clade A (HIV-1)
[7] = molecular target: HIV-1 Env of isolate MGRM-D-029 (clade D pseudovirus) (HIV-1)
[8] = molecular target: HIV-1 Env of isolate 6535.3 (Acute), clade B, on pseudovirus (HIV-1)
[9] = molecular target: HIV-1 Env of pseudovirus MGRM-F1-018 (HIV-1)
[10] = molecular target: HIV-1 Env of pseudovirus MGRM-F1-022 (HIV-1)
[11] = molecular target: HIV-1 Env of isolate APV_17, clade B, on pseudovirus (HIV-1)
[12] = molecular target: HIV-1 Env of isolate MGRM-Chronic-B-003, clade B, on pseudovirus (HIV-1)
[13] = molecular target: HIV-1 Env of pseudovirus MGRM-AE-002 (clade CRF01_AE) (HIV-1)
[14] = molecular target: HIV-1 Env of pseudovirus MGRM-Chronic-B-012 (HIV-1)
[15] = molecular target: HIV-1 Env of pseudovirus MGRM-G-017 (HIV-1, clade G isolate MGRM-G-017)
[16] = molecular target: HIV-1 APV17 Env (pseudovirus, clade B) (HIV-1)
[17] = molecular target: HIV-1 Env of isolate JR-CSF (pseudovirus) (HIV-1) (UniProt P20871)
[18] = molecular target: HIV-1 Env of isolate MGRM-D-018 (clade D), on pseudovirus (HIV-1)
[19] = molecular target: HIV-1 Env of isolate MG RM-D-003 (HIV-1)
[20] = molecular target: HIV-1 Env of isolate MGRM-AG-005 (subtype AG) (HIV-1)
[21] = molecular target: HIV-1 Env of isolate MGRM-Chronic-B-002 (subtype B) (HIV-1)
[22] = molecular target: HIV-1 Env of isolate 92UG005 (clade D), on pseudovirus (HIV-1)
[23] = molecular target: HIV-1 Env of isolate MG RM-D-001 (HIV-1)
[24] = molecular target: HIV-1 93IN905 Env (pseudovirus, clade C) (HIV-1)
[25] = molecular target: HIV-1 JRFL Env (pseudovirus) (HIV-1)
[26] = molecular target: HIV-1 Env of isolate MGRM-C-005 (subtype C) (HIV-1)
[27] = molecular target: HIV-1 Env of isolate CMU02 (subtype AE) (HIV-1)
[28] = molecular target: HIV-1 envelope glycoprotein (Env) of isolate MGRM-C-023 (HIV-1)
[29] = molecular target: HIV-1 Env of isolate SC422661.8 (subtype B) (HIV-1)
[30] = molecular target: HIV-1 Env of pseudovirus isolate MGRM-G-024 (HIV-1)
[31] = molecular target: HIV-1 Env of isolate MGRM-Chronic-B-023 (subtype B) (HIV-1)
[32] = molecular target: HIV-1 Env of isolate 92WR024 (HIV-1)
[33] = molecular target: HIV-1 Env of isolate MGRM-C-001 (subtype C) (HIV-1)

Sequence of 5329_C19 (PGT-136) (antibody) (VH): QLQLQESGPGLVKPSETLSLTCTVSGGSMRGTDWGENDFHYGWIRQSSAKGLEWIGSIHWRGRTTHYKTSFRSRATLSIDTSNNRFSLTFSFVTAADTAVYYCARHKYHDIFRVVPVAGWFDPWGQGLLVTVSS
Sequence of 5329_C19 (PGT-136) (antibody) (VL): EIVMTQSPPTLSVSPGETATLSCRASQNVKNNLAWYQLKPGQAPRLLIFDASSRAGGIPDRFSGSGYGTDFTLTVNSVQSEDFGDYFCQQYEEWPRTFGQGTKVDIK
Sequence of 1443_C16 (PG16) (TCN-116) (antibody) (VH): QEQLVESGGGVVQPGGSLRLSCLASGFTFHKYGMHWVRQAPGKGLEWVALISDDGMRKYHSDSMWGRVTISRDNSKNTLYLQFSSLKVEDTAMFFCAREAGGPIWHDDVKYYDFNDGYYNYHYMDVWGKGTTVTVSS
Sequence of 1443_C16 (PG16) (TCN-116) (antibody) (VL): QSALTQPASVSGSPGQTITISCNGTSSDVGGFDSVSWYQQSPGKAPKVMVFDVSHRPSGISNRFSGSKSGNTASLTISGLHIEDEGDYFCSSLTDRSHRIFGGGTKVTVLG
Sequence of 5345_I01 (PGT-137) (antibody) (VH): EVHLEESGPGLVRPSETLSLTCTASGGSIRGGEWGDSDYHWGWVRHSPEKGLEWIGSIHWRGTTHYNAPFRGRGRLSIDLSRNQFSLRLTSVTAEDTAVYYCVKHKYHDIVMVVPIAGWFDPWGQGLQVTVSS
Sequence of 5345_I01 (PGT-137) (antibody) (VL): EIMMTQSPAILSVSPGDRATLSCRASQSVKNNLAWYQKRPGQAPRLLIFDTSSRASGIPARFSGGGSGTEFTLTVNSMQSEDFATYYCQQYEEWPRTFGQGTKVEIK

Row | Substance | IC50 [1] [µg/mL] | IC50 (µg/ml), pseudovirus neutralization [2] [µg/mL] | IC50 (µg/ml), pseudovirus neutralization [3] [µg/mL] | IC50 (µg/ml), pseudovirus neutralization [4] [µg/mL] | IC50 (µg/ml), pseudovirus neutralization [5] [µg/mL] | IC50 (µg/ml), pseudovirus neutralization [6] [µg/mL] | IC50 (µg/ml), pseudovirus neutralization [7] [µg/mL] | IC50 (µg/ml), pseudovirus neutralization [8] [µg/mL] | IC50 (µg/ml), pseudovirus neutralization [9] [µg/mL] | IC50 (µg/ml), pseudovirus neutralization [10] [µg/mL] | IC50 (µg/ml), pseudovirus neutralization [11] [µg/mL] | IC50 (µg/ml), pseudovirus neutralization [12] [µg/mL] | IC50 [13] [µg/mL] | IC50 (µg/ml), pseudovirus neutralization [14] [µg/mL] | IC50 (µg/ml), pseudovirus neutralization [15] [µg/mL] | Primary Neutralization Index (B cell culture supernatant) [17] | IC50 (µg/mL), pseudovirus neutralization [19] [µg/mL] | IC50 (µg/mL), pseudovirus neutralization [20] [µg/mL] | IC50 neutralization [21] [µg/mL] | IC50 (µg/mL), pseudovirus neutralization [23] [µg/mL] | further results
1 | 2F5 (antibody) | 0.54 | > 50 | 16.3 | 1.78 | > 50 | 3.81 | > 50 | 2.76 | 3.91 | 1.26 | 4.61 | 1 | 0.31 | 17.6 | 0.6 | – | – | – | – | – | –
2 | 2G12 (antibody) | > 50 | > 50 | > 50 | 9.23 | > 50 | > 50 | > 50 | 3.85 | > 50 | > 50 | > 50 | 0.06 | > 50 | 0.22 | > 50 | – | – | – | – | – | –
3 | 4E10 (antibody) | 1.48 | 4.55 | 1.82 | 0.44 | 3.6 | 4.94 | 5.3 | 1.23 | 3.6 | 1.01 | 10.5 | 3.5 | 0.55 | 48 | 1.14 | – | – | – | – | – | –
4 | 1443_C16 (PG16) (TCN-116) (antibody) | 0.002 | 0.007 | 5.91 | > 50 | 0.02 | 0.43 | > 50 | 36.9 | 0.01 | 0.08 | 24.8 | 0.19 | 0.01 | 3.74 | 0.02 | – | – | – | – | – | –
5 | 1495_C14 (PGC14) (antibody) | 45 | > 50 | > 50 | > 50 | > 50 | > 50 | > 50 | 35 | > 50 | > 50 | > 50 | > 50 | > 50 | > 50 | > 50 | – | – | – | – | – | –
6 | 5147_N06 (PGT-130) (antibody) | – | – | – | – | – | – | – | – | – | – | – | – | – | – | – | 19.3 | 0.651 | 0.54 | > 50 | > 50 | IC50 neutralization [16]: > 10 µg/mL; Polyclonal Transfectant Neutralization Index [17]: 1.24; IC50, pseudovirus neutralization [18]: 0.0378 µg/mL; IC50, pseudovirus neutralization [22]: 0.474 µg/mL; IC50 neutralization [24]: 0.0182 µg/mL; Neutralization by PGT-130, IC50 [25]: 0.0346 µg/mL; Neutralization by PGT-130, IC80 [25]: 0.751 µg/mL; Neutralization by PGT-130, IC90 [25]: 5.72 µg/mL; Neutralization by PGT-130, IC95 [25]: > 10 µg/mL; neutralization IC50 (pseudovirus) [25]: 0.0346 µg/mL; IC50 neutralization [26]: 0.935 µg/mL; IC50 (µg/mL), pseudovirus neutralization [27]: > 50 µg/mL; IC50 (µg/mL), pseudovirus neutralization [28]: 0.151 µg/mL; IC50 neutralization [29]: > 50 µg/mL; IC50 (µg/mL), pseudovirus neutralization [30]: 5.84 µg/mL; IC50 neutralization [31]: > 50 µg/mL; IC50 [32]: > 50 µg/mL; IC50 neutralization [33]: > 50 µg/mL
7 | 5329_C19 (PGT-136) (antibody) | – | – | – | – | – | – | – | – | – | – | – | – | – | – | – | 0.9 | > 50 | > 50 | > 50 | > 50 | IC50 neutralization [16]: > 10 µg/mL; IC50, pseudovirus neutralization [18]: > 10 µg/mL; IC50, pseudovirus neutralization [22]: > 10 µg/mL; IC50 neutralization [24]: 0.0135 µg/mL; IC50 (neutralizing activity, pseudovirus) [25]: > 10 µg/mL; IC50 neutralization [26]: > 50 µg/mL; IC50 (µg/mL), pseudovirus neutralization [27]: > 50 µg/mL; IC50 (µg/mL), pseudovirus neutralization [28]: 3.2 µg/mL; IC50 neutralization [29]: > 50 µg/mL; IC50 (µg/mL), pseudovirus neutralization [30]: 0.152 µg/mL; IC50 neutralization [31]: > 50 µg/mL; IC50 [32]: > 50 µg/mL; IC50 neutralization [33]: 7.52 µg/mL
8 | 5343_B08 (PGT-135) (antibody) | – | – | – | – | – | – | – | – | – | – | – | – | – | – | – | 1.8 | > 50 | > 50 | > 50 | > 50 | IC50 neutralization [16]: > 10 µg/mL; IC50, pseudovirus neutralization [18]: 0.0433 µg/mL; IC50, pseudovirus neutralization [22]: > 10 µg/mL; IC50 neutralization [24]: 0.0183 µg/mL; IC50 (neutralizing activity, pseudovirus) [25]: > 10 µg/mL; IC50 neutralization [26]: > 50 µg/mL; IC50 (µg/mL), pseudovirus neutralization [27]: > 50 µg/mL; IC50 (µg/mL), pseudovirus neutralization [28]: 0.061 µg/mL; IC50 neutralization [29]: 21.8 µg/mL; IC50 (µg/mL), pseudovirus neutralization [30]: 0.062 µg/mL; IC50 neutralization [31]: 0.329 µg/mL; IC50 [32]: > 50 µg/mL; IC50 neutralization [33]: 10.1 µg/mL
9 | 5345_I01 (PGT-137) (antibody) | – | – | – | – | – | – | – | – | – | – | – | – | – | – | – | 1.1 | > 50 | > 50 | > 50 | > 50 | IC50 neutralization [26]: > 50 µg/mL; IC50 (µg/mL), pseudovirus neutralization [27]: > 50 µg/mL; IC50 (µg/mL), pseudovirus neutralization [28]: 0.23 µg/mL; IC50 neutralization [29]: > 50 µg/mL; IC50 (µg/mL), pseudovirus neutralization [30]: 0.051 µg/mL; IC50 neutralization [31]: > 50 µg/mL; IC50 [32]: > 50 µg/mL; IC50 neutralization [33]: 21.5 µg/mL
10 | b12 (antibody) | > 50 | > 50 | > 50 | > 50 | 5.92 | > 50 | > 50 | 1.93 | > 50 | > 50 | > 50 | > 50 | 17.1 | > 50 | > 50 | – | – | – | – | – | –
